Here are results for eleven molecules from patent publication US20240409643A1, “ANTI-NMDAR2B ANTIBODIES, ANTIBODY-DRUG CONJUGATES, AND CHIMERIC ANTIGEN RECEPTORS, AND COMPOSITIONS AND METHODS OF USE” (THE TRUSTEES OF DARTMOUTH COLLEGE, priority 2021, published 2024).

Where a chain is given by its changes, count along the chain named. Entries after “also recorded” stand apart in the source; their conditions may differ. Ends that are not written are not given here. * marks the point of attachment. 125I = [125I]*

Data set [1] relates to LNCAP cells. As to the kind of experiment: LNCAP cell viability assay (AlamarBlue). In kind it is cell-based. As to conditions: for Effect on LNCAP cell viability: 48 hours incubation, % of fluorescence of vehicle treated cells. The method, then: LNCAP cells were plated in 96 well plates at 1-2×10^4 cells/well. The cells were incubated with PBS with glycine containing albumin (1.25 mg/ml) in the presence of different concentrations of a NMDAR receptor antagonist, MK-801 (also known as dizocilpine) or memantine, dilutions of the anti-NMDAR1 antisera described in Example 1 or anti-NMDAR1 IgG isolated from such antisera, or vehicle only. Each group was run in quadruplicate. AlamarBlue® was later added to each well following an incubation period of 48 hours, and fluorescent readings were taken with excitation at 530-560 nm and emission at 590 nm and above on a SYNERGY™ HT Multi Detection Reader to (BioTek®). Cell viability (%) was calculated as % of fluorescence of vehicle treated cells at 48 hours.
(In general: The colour change of resazurin is a common sign of viable cells or microbes.)

Data set [2] concerns NCI H82 cells. The data set can be described thus: In vivo combination treatment of NCI H82 tumors in nu/nu mice: cyclophosphamide followed by ifenprodil. As to conditions: cyclophosphamide 75 mg/kg body weight daily for 3 days. On the procedure:
Anti-cancer agent: Cyclophosphamide, an alkylating agent, was used as an exemplary anti-cancer agent.
(§1) Anti-NMDA receptor agent: ifenprodil was used as an exemplary NMDA receptor antagonist
Mouse treatment: Male nu/nu mice were injected subcutaneously with NCI H82 cells (about 10^7 cells/mouse). […] Animals were divided into two groups. […] The other group was treated with saline vehicle. Changes in the tumor size were recorded daily.

For data set [3] the following is noted: cited from earlier work.
Data set [4] concerns NCI H82 cells. As to the kind of experiment: In vivo treatment of NCI H82 tumors in nu/nu mice with ifenprodil. The method, then: as §1
Mouse treatment: Male nu/nu mice were injected subcutaneously with NCI H82 cells (about 10^7 cells/mouse). Tumors became obvious after 2-3 weeks and commenced growing rapidly. Animals were divided into two groups. […] The other group was treated with saline vehicle. Changes in the tumor size and body weight were recorded daily.

In data set [5] the target is T1, NMDAR2B immunogen peptide, free (YKDAHEKDDF-amide) (human).
T1 construct: Free form: no radiolabel and no further conjugation; also called free NMDAR2B immunogen peptide; free peptide
T1 peptide: YKDAHEKDDF-NH2
As to the kind of experiment: competition ELISA against peptide coupled to biotinylated BSA. The method, then: (§2) ELISA assay: 96 well plates (ELISA Microlon 66 (Greiner Bio-one); #655061) were coated with Affinipure anti-human IgG antibodies (which bind to Fabs) (Jackson Immunoresearch Laboratories; #109-005-0060). Each well was added with a 50 μl volume containing 5 ng or 10 ng of an appropriate Fab and another […] volume containing the NMDAR2B immunogen peptide in a range of 10 μg to 10 ng, followed by incubation at 4° C. for 24-48 hours. Plates were washed, and each well was incubated with the biotinylated peptide at 100 ng/ml for 30 minutes to one hour and then with HRP-conjugated streptavidin (Thermo Industries; Product #N100) was added at 1:10,000 dilution for 30 minutes. Plates were washed and incubated with a mixture of 0.007% H₂O₂ and Amplex® Ultrared Reagent (Molecular Probes) for one hour, and fluorescence was read at excitation at 550 nm and fluorescence at 590 nm on a SYNERGY™ HT Multi Detection Reader to (BioTek®).
ELISA assay: ELISA as in Example 6 was performed using the NMDAR2B immunogen peptide coupled to biotinylated BSA and then, to test competition, the free NMDAR2B immunogen peptide.
For orientation: In an ELISA, binding on a coated surface is turned into a signal by an enzyme label.

Data set [6] addresses T2, 125I-labeled NMDAR2B immunogen peptide (human).
T2 construct: also called ^125I-labeled (radiolabel on the N-terminal tyrosine) NMDAR2B immunogen peptide
T2 peptide: Y(125I)KDAHEKDDF-NH2
As to the kind of experiment: radioimmunoassay with 125I-labeled and free peptide. The method, then: Radioimmunoassay: Radioimmunoassay on Fab3 through Fab10 was performed using ¹²⁵I-labeled (radiolabel on the N-terminal tyrosine) and free (no radiolabel or additional conjugation) NMDAR2B immunogen peptides.

Data set [7] has as its target T3, BSA-coupled NMDAR2B immunogen peptide (human; bovine, UniProt P02769 25-607, carrier, cross-linked to the peptide with glutaraldehyde; C-terminal amide; coupled to BSA with glutaraldehyde).
T3 construct: also called NMDAR2B immunogen peptide coupled to BSA; unlabeled BSA-coupled NMDAR2B immunogen peptide
The data set can be described thus: competition displacement ELISA, additional studies (FIG. 7B). The method, then:
as §2
ELISA assay: ELISA as in Example 6 was performed using the NMDAR2B immunogen peptide coupled to BSA (as prepared in Example 4) and the NMDAR2B immunogen peptide coupled to biotinylated BSA (as prepared in Example 7). Competition displacement curves were generated as repeated points in quadruplicate, and dissociation constants for respective Fabs to the BSA-coupled NMDAR2B immunogen peptide were calculated.

Data set [8] deals with T4, Biotinylated NMDAR2B immunogen peptide (human, also: biotinylated, site not given here).
T4 construct: also called biotinylated peptide
T4 peptide: YKDAHEKDDF-NH2
As to the kind of experiment: ELISA, Fab captured on anti-human IgG, streptavidin-HRP detection. On the procedure:
as §2

T3 sequence (P02769 25-607 limits assumed): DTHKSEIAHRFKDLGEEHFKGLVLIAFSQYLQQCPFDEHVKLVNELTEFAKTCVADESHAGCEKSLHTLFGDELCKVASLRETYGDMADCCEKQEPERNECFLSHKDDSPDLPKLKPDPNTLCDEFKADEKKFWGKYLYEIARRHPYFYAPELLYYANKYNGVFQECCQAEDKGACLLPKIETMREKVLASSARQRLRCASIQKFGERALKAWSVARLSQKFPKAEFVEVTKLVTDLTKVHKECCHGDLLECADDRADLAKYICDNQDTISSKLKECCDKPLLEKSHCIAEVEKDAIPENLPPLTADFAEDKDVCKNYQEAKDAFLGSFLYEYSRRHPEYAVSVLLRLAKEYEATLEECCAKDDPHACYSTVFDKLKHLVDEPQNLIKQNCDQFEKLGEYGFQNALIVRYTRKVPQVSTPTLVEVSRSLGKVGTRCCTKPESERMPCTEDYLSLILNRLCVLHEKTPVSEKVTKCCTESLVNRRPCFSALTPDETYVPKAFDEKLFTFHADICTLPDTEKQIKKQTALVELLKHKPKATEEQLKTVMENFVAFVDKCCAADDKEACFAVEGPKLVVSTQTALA

Turning to `C[C@]12N[C@H](Cc3ccccc31)c1ccccc12` [MK-801, dizocilpine], the “Effect on LNCAP cell viability” value in data set [1] is recorded as “reduced cell viability in a does-dependent manner”. Also, the “Concentration at which the reduction of cell viability was statistically significant (p<0.01)” value in data set [1] (LNCAP cells, 48 hours) is recorded as over 300 pM.
On to `O=P1(N(CCCl)CCCl)NCCCO1` (centres unmarked) [cyclophosphamide], for which, in data set [2], the “Effect of cyclophosphamide treatment on tumor growth” value is “does not inhibit tumor growth beyond the time of cyclophosphamide administration; also recorded: slowed but did not stop tumor growth”.
Regarding `CC(C(O)c1ccc(O)cc1)N1CCC(Cc2ccccc2)CC1` (centres unmarked) [ifenprodil], in data set [3], the ED50 in mice result is given as “about 350 mg/kg body weight”. Besides, the “Tumor growth with ifenprodil alone” value in data set [4] (animals that only received ifenprodil but not cyclophosphamide, after a day of decrease in size) is “continued to grow”. For the same molecule, the “Time for tumors to grow back to their original size” value in data set [4] (ifenprodil 2.5 mg/kg body weight intraperitoneally once daily) is “about 10 days”. Besides, the “Tumor growth relative to original size” value in data set [4] (ifenprodil 2.5 mg/kg body weight intraperitoneally once daily, by two weeks of treatment, saline controls >6 times) is listed as under 2 times their original size. The “Tumor size relative to original size after initial shrinkage” value in data set [4] (ifenprodil 2.5 mg/kg body weight intraperitoneally once daily, in about a day) is reported as “about 80%”. Also, in data set [4] (over 8 days of treatment), the “Body weight versus saline control” value is on record as “no differences between groups”.
In the case of `CC12CC3CC(C)(C1)CC(N)(C3)C2` [memantine], in data set [1], the “Effect on LNCAP cell viability” value is listed as “reduced cell viability in a does-dependent manner”.

B1: Fab9 (Fab, V domains shown)
VH: EVQLVESGGGLVQPGGSLRLSCAASGFNLSYSSMHWVRQAPGKGLEWVASISPYSGSTYYADSVKGRFTISADTSKNTAYLQMNSLRAEDTAVYYCARYYWYYYYGFDYWGQGTLVTVSS
VL: DIQMTQSPSSLSASVGDRVTITCRASQSVSSAVAWYQQKPGKAPKLLIYSASSLYSGVPSRFSGSRSGTDFTLTISSLQPEDFATYYCQQYVGYGSPITFGQGTKVEIK
notes: also called Ab9 (IgG form with the same VH and VL)
By Kd is commonly meant a measure of binding affinity in units of concentration. In the case of B1, the binding result in data set [5], in data set [6] and in data set [8] was “no binding” each time. Further, in data set [7], the Kd was about 5 nM.

B2: Fab4 (Fab, V domains shown)
VH: EVQLVESGGGLVQPGGSLRLSCAASGFNLYYYSIHWVRQAPGKGLEWVAYISSYYGYTYYADSVKGRFTISADTSKNTAYLQMNSLRAEDTAVYYCARYYPGGWHAFDYWGQGTLVTVSS
VL: B1 VL with V92Y, S96Y
notes: also called Ab4 (IgG form with the same VH and VL)
B2: the binding result in data set [5], in data set [6] and in data set [8] was “no binding” in each case.

B3: Fab10 (Fab, V domains shown)
VH: EVQLVESGGGLVQPGGSLRLSCAASGFNLYSSYMHWVRQAPGKGLEWVASISSSYGYTYYADSVKGRFTISADTSKNTAYLQMNSLRAEDTAVYYCARTVRGSKKPYFSGWAMDYWGQGTLVTVSS
VL: DIQMTQSPSSLSASVGDRVTITCRASQSVSSAVAWYQQKPGKAPKLLIYSASSLYSGVPSRFSGSRSGTDFTLTISSLQPEDFATYYCQQGSYLITFGQGTKVEIK
notes: also called Ab10 (IgG form with the same VH and VL)
As to B3, the binding result in data set [5], in data set [6] and in data set [8] was “no binding” each time.

B4: Fab8 (Fab, V domains shown)
VH: B3 VH with L29I, S31Y
VL: B3 VL with G91A
notes: also called Ab8 (IgG form with the same VH and VL)
As to B4, the binding result in data set [5], in data set [6] and in data set [8] was “no binding” each time.

B5: Fab6 (Fab, V domains shown)
VH: B3 VH with L29I, M34I
VL: B3 VL with S92G, Y93S
notes: also called Ab6 (IgG form with the same VH and VL)
On to B5, for which the binding result in data set [5], in data set [6] and in data set [8] was “no binding” each time.

B6: Fab5 (Fab, V domains shown)
VH: B3 VH with S52Y, G56S, Y57S
VL: B3 VL with S92A, Y93G
notes: also called Ab5 (IgG form with the same VH and VL)
With B6, the binding result in data set [5], in data set [6] and in data set [8] was “no binding” in each case.

B7: Fab7 (Fab, V domains shown)
VH: B3 VH with L29F, Y30S, Y33S, M34I
VL: B3 VL with Y93H
notes: also called Ab7 (IgG form with the same VH and VL)
With B7, the binding result in data set [5], in data set [6] and in data set [8] was “no binding” in each case.
